Test results published in patent publication US20050025768A1 (Biogen, published 2005).

T1: human MCP-2 (human, UniProt P80075 24-99)
T1 construct: also called hMCP-2; huMCP-2
T1 sequence (looked up): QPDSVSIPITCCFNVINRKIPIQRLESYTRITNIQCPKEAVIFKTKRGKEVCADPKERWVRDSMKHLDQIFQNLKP

T2: human DC-CK (human, UniProt P55774 21-89, limits assumed)
T2 construct: reading it as DC-CK1/CCL18 is mine
T2 sequence (looked up): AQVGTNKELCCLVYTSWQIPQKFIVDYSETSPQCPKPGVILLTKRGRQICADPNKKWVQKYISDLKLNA

T3: human fractalkine (human, UniProt P78423 25-100, limits assumed)
T3 sequence (looked up): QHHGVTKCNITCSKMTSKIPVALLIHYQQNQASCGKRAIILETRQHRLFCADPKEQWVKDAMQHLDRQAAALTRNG

B1: 1A1 (antibody, IgG1, V domains shown)
VH: EVQLQQSGAELVRSGASVKLSCTASGFNIKDNYMHWVKQRPEQGLEWIGWIDPENGDTEYAPKFQGKATMTADTSSNTAYLQLSSLTSEDTAVYYCNTWAYYGTSYGGFAYWGQGTTVTVSS
VL: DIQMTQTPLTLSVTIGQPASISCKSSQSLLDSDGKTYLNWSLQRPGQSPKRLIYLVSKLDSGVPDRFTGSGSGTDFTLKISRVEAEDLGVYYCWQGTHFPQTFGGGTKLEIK
notes: ATCC PTA-3990; also called 1A1.1; 1A1 mAb
B2: 1A1 Fab (Fab, V domains shown)
VH: B1 VH
VL: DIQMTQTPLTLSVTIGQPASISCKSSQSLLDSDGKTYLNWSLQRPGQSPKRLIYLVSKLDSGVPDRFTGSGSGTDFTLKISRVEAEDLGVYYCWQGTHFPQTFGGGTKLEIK
notes: Fab of the murine IgG1 mAb; also called Fab fragment of 1A1
B3: 11K2 (antibody, IgG1, V domains shown)
VH: EVQLQQSGAELVKAGASVKLSCPASGLNIKDTYMHWVKQRPEQGLEWIGRIDPANGNTKFDPKFQGKATITADTSSNTAYLQLSSLTSEDTAVYYCARGVFGFFDYWGQGTTLTVSS
VL: DIQMTQSSSSFSVSLGDRVTITCKATEDIYNRLAWYQQKPGSAPRLLISGATSLETGVPSRFSGSGSGKDYTLSITSLQTEDVATYYCQQFWSAPYTFGGGTKLEIK
notes: ATCC PTA-3987; also called 11K2.1; 11K2 mAb
B4: 4N4 (antibody, IgG1, V domains shown)
VH: B3 VH
VL: B3 VL
notes: IgG1; ATCC PTA-3994; also called 4N4.1
B5: 6D21 (antibody, IgG1, V domains shown)
VH: B3 VH
VL: B3 VL
notes: IgG1; ATCC PTA-3989; also called 6D21.1
B6: 5A13 (antibody, IgG1, V domains shown)
VH: B3 VH
VL: B3 VL
notes: IgG1; ATCC PTA-3995; also called 5A13.1
B7: 11K2 Fab (Fab, V domains shown)
VH: B3 VH
VL: B3 VL
notes: Fab of the murine IgG1 mAb; also called Fab fragment of 11K2
B8: 6I5 (antibody, IgG1, V domains shown)
VH: B3 VH
VL: B3 VL
notes: IgG1; ATCC PTA-3986; also called 615; 6I5.1
B9: 7H1 (antibody, IgG1, V domains shown)
VH: B3 VH
VL: B3 VL
notes: IgG1; ATCC PTA-3985; also called 7H1.1

Legend:
cynomolgus MCP-1 = target: T4, cynomolgus MCP-1 (cynomolgus, UniProt P61274 24-99); experiment: ELISA, 1 ug/ml synthetic chemokine coated, mAb 10 ug/ml
T4 construct: also called primate MCP-1
Procedure: (§1) MaxiSorp 384 well plates were coated with 15-20 μl antigen in PBS. Recombinant purified human antigens included: MCP-1, MCP-2, MCP-3, MCP-4, IL-8, eotaxin, fractalkine, Gcp-2, DC-CK (Gcp-2 and DC-CK are also chemokines). Plates were incubated with antigen for 2 hours at 37° C. or overnight at 4° C. Non-specific sites were blocked with 80 μl/well of 1% BSA/PBS for 1 hour at room temperature. Plates were washed and 15 μl of hybridoma supernatant was added to each well and incubated for 1 hour at room temperature. Plates were washed and wells were incubated with 20 μl/well of a 1:25 000 dilution of goat anti-mouse IgG peroxidase conjugate (Jackson Catalog Number 515-036-003). Plates were incubated for 1 hour at room temperature, washed, and 20 μl/well of substrate (TMB, tetramethylbenzidine, Jackson, Catalog Number 515-036-062) was added. Reaction was allowed to proceed and stopped by addition of 20 μl/well of 2M H₂SO₄. Reactive clones were picked for further analysis. Isotyping of hybridoma supernatants was performed by antigen-dependent ELISA. Briefly, wells were coated with 50 μl of human MCP-1 (5 μg/ml) for 1 hour at 37° C. Wells were washed 4 times and blocked with PBS/1% BSA. Isotyping of hybridoma supernatants was then performed using a mouse immunoglobulin screening/isotyping kit (Zymed Laboratories, San Francisco, Calif.) as recommended by the manufacturer.
(§2) In addition, both 1A1 and 11K2 mAbs recognize primate MCP-1. Plates were coated with 1 μg/ml of chemically synthesized chemokines (corresponding to the cynomolgus and rhesus MCP-1 sequences) and probed with 10 μg/ml of monoclonal antibodies, including MOPC21, 1l K2, 3N10, 1A1, D9, and 1M11, as described above.

rhesus MCP-1 = target: T5, rhesus MCP-1 (rhesus, UniProt P61275 24-99); experiment: as above
T5 construct: also called primate MCP-1
Procedure: as §1, §2

human MCP-1 = target: T6, human MCP-1 (human, UniProt P13500 24-99); experiment: KinExA kinetic exclusion assay, in solution
T6 construct: also called hMCP-1; huMCP-1
Procedure: (§3) Polymethylmethacrylate beads activated with NHS were coated with 10 μg recombinant human MCP-1 in 1 ml buffer. The beads were packed into a column in the KinExA instrument for each sample. This packed bead column is able to capture free MCP mAb or Fab flowed through the column. The amount of free mAb or Fab in solution was determined using a secondary goat anti-mouse heavy and light chain IgG-Cy5 conjugate.
(§4) A fixed amount of 11K2 mAb, 1A1 mAb, 11K2 Fab, or 1A1 Fab was incubated with various amounts of human MCP-1, MCP-2 or MCP-3 for three hours. The amount of uncomplexed free antibody remaining in solution was determined by flowing these mixtures over the MCP-1-loaded bead column and labeling with the Cy5 secondary antibody. The fluorescent signal was plotted against the MCP concentration and the affinity was determined using a quadratic curve fit

human eotaxin = target: T7, human eotaxin (human, UniProt P51671 24-97); experiment: ELISA, purified mAb
T7 construct: also called hEotaxin
Procedure: (§5) ELISA specificity assays were performed using purified monoclonal antibodies to confirm the binding specificities of the supernatant MCP-specific monoclonal antibodies described above. Antibodies were purified by Protein A affinity column chromatography, according to standard methods known in the art.
(§6) ELISA was performed as previously described in Example 1. Briefly, MaxiSorp 384 well plates were coated with 15-20 μl antigen in PBS. Recombinant purified human antigens included: MCP-1, MCP-2, MCP-3, MCP-4, IL-8, eotaxin, murine MCP-1 (JE), murine MCP-3, murine MCP-5, and rat MCP-1. All antigens, including MCP-3, were immobilized. Plates were washed and purified monoclonal antibody (10 μg/ml) was added to each well and incubated for 1 hour at room temperature. Plates were washed and wells were incubated with 20 μl/well of a 1:25,000 dilution of goat anti-mouse IgG peroxidase conjugate (Jackson Catalog Number 515-036-003). Plates were incubated for 1 hour at room temperature, washed, and 20 μl/well of substrate (TMB, tetramethylbenzidine, Jackson, Catalog Number 515-036-062) was added. Reaction was allowed to proceed and stopped by addition of 20 μl/well of 2M H₂SO₄. Antibodies 1A1 bound specifically to hMCP-1, hMCP-2, hMCP-3, and mMCP-1. Antibodies 11K2, 4N4, 5A 13, 6D21, 6I5, and 7H1 bound specifically to hMCP-1, hMCP-2, hMCP-3, mMCP-1, mMCP-3, and mMCP-5.

human IL-8 = target: T8, human IL-8 (human, UniProt P10145 28-99, limits assumed); experiment: ELISA, purified mAb
T8 construct: also called hIL8
Procedure: as §5, §6

human MCP-4 = target: T9, human MCP-4 (human, UniProt Q99616 24-98, limits assumed); experiment: ELISA, purified mAb
T9 construct: also called hMCP-4
Procedure: as §5, §6

human MCP-2 [1] = target: T1, human MCP-2; experiment: KinExA kinetic exclusion assay, in solution; whole mAb (bivalent IgG1), not Fab
Procedure: as §3, §4

human DC-CK = target: T2, human DC-CK; experiment: ELISA, hybridoma supernatant
Procedure: as §1

human Gcp-2 = human Gcp-2 (human, UniProt P80162 38-114, limits assumed); experiment: ELISA, hybridoma supernatant
Procedure: as §1

human fractalkine = target: T3, human fractalkine; experiment: ELISA, hybridoma supernatant
Procedure: as §1

human MCP-2 [2] = target: T1, human MCP-2; experiment: KinExA kinetic exclusion assay, in solution; Fab (monovalent), not whole mAb
Procedure: as §3, §4

human MCP-2 [3] = target: T1, human MCP-2; experiment: KinExA kinetic exclusion assay, in solution
Procedure: as §3, §4

Row | Binder | binding result (cynomolgus MCP-1) | binding result (rhesus MCP-1) | Kd (human MCP-1) | binding result (human eotaxin) | binding result (human IL-8) | binding result (human MCP-4) | Kd (human MCP-2 [1]) | binding result (human DC-CK) | binding result (human Gcp-2) | binding result (human fractalkine) | Kd (human MCP-2 [2]) | Kd (human MCP-2 [3])
1 | B1 | binds | binds | < 0.7 pM | no binding (tested: 10 ug/ml) | no binding (tested: 10 ug/ml) | no binding (tested: 10 ug/ml) | 1.2 pM | no binding | no binding | no binding |  | 
2 | B2 |  |  | 13 pM |  |  |  |  |  |  |  | 320 pM | 
3 | B3 | binds | binds | < 0.4 pM | no binding (tested: 10 ug/ml) | no binding (tested: 10 ug/ml) | no binding (tested: 10 ug/ml) |  | no binding | no binding | no binding |  | 18 pM
4 | B4 |  |  |  | no binding (tested: 10 ug/ml) | no binding (tested: 10 ug/ml) | no binding (tested: 10 ug/ml) |  | no binding | no binding | no binding |  | 
5 | B5 |  |  |  | no binding (tested: 10 ug/ml) | no binding (tested: 10 ug/ml) | no binding (tested: 10 ug/ml) |  | no binding | no binding | no binding |  | 
6 | B6 |  |  |  | no binding (tested: 10 ug/ml) | no binding (tested: 10 ug/ml) | no binding (tested: 10 ug/ml) |  | no binding | no binding | no binding |  | 
7 | B7 |  |  | 11 pM |  |  |  |  |  |  |  |  | 430 pM
8 | B8 |  |  |  | no binding (tested: 10 ug/ml) | no binding (tested: 10 ug/ml) | no binding (tested: 10 ug/ml) |  | no binding | no binding | no binding |  | 
9 | B9 |  |  |  | no binding (tested: 10 ug/ml) | no binding (tested: 10 ug/ml) | no binding (tested: 10 ug/ml) |  | no binding | no binding | no binding |  | 
